Patent publication US20220119534A1 (DRAGONFLY THERAPEUTICS, published 2022)
Several values for one entry are separate records, joined by “and”; a condition that tells them apart may be missing. Equal values may be shown once.

T1: De-glycosylated human CLEC12A (human, UniProt Q5QGZ9 65-265, treated with PNGaseF (N-linked glycans removed))
T1 construct: Same recombinant antigen as m2 after PNGaseF; also called De-glycosylated CLEC12A
T1 sequence: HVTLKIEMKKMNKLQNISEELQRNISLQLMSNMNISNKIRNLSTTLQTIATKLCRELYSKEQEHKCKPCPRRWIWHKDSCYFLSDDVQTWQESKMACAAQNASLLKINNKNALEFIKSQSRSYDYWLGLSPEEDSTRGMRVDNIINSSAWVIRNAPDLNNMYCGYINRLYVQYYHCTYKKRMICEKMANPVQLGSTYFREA

T2: De-sialylated human CLEC12A (human, UniProt Q5QGZ9 65-265, treated with neuraminidase (terminal sialic acids removed))
T2 construct: Same recombinant antigen as m2 after neuraminidase; also called De-sialylated CLEC12A
T2 sequence: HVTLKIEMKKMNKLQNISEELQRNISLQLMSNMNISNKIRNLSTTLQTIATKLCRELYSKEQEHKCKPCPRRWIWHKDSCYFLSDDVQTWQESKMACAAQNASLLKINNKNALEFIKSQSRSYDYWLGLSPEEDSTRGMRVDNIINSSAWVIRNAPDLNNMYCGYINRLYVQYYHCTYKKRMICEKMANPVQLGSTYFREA

T3: mFc-hNKG2D (recombinant mFc-tagged human NKG2D dimer) (human, UniProt P26718 73-216)
T3 construct: extracellular domain; Made in house; not shown: mouse Fc tag
T3 sequence (looked up): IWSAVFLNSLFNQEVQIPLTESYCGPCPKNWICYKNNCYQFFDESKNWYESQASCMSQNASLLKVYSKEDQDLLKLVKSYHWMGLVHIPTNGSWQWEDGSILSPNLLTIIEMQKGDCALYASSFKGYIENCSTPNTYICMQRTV

T4: Human CD32a H131 (FcγRIIa H131) (human, UniProt P12318 36-218, limits assumed, biotinylated)
T4 construct: Bought recombinant receptor; also called hFcγRIIa H131; FcgRIIa H131
T4 sequence (looked up): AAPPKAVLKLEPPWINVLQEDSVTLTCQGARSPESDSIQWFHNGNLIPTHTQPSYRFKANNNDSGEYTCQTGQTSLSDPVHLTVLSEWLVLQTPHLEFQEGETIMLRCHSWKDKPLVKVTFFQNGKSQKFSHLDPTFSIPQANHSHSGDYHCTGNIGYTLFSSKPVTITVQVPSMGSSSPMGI

T5: Human CD32a R131 (FcγRIIa R131) (human, UniProt P12318 36-218, limits assumed, biotinylated)
T5 construct: Bought recombinant receptor; also called hFcγRIIa R131; FcgRIIa R131
T5 sequence (looked up): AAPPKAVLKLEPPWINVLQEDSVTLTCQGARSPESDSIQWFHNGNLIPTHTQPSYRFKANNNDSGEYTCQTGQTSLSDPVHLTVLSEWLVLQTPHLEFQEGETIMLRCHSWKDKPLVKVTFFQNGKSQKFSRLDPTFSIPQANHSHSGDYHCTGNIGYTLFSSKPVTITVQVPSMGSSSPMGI

T6: Human CLEC12A-His (recombinant, K244 WT) (human, UniProt Q5QGZ9 65-265)
T6 construct: Made in house (Dragonfly Tx); also called hCLEC12A; hCLEC12A-His; not shown: His tag
T6 sequence: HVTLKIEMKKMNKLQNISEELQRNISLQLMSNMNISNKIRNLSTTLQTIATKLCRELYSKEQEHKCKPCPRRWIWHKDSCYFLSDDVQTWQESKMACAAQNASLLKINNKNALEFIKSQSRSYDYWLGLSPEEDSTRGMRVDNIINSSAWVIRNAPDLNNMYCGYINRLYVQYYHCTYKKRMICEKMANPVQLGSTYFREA

T7: mFc-hNKG2D (human, UniProt P26718 73-216)
T7 construct: extracellular domain; Recombinant mFc-tagged NKG2D dimer, made in house; also called human NKG2D; not shown: mouse Fc tag
T7 sequence (looked up): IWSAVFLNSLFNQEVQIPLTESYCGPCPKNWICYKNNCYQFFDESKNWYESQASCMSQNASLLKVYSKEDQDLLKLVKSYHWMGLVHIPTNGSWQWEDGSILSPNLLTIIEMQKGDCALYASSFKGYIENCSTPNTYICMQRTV


How the values were obtained:
[1] = molecular target: T1, De-glycosylated human CLEC12A; assay: SPR, two-state fit
Method: (§1) Briefly, human Fc specific antibodies were covalently immobilized at a density ˜8000-10000 resonance units (RU) on carboxy methyl dextran matrix of a CM5 biosensor chip via amine-coupling chemistry to create an anti-hFc IgG chip. […] Association was monitored for 300 seconds and dissociation was monitored for 600 seconds. Surfaces were regenerated between cycles with three pulses of 10 mM glycine-HCl, pH 1.7 injected for 20 seconds at 100 μl/min. HBS-EP+ (1×) with 0.1 mg/ml BSA was used as running buffer throughout the experiment. Experiments were performed at physiological temperature of 37° C. To obtain kinetic rate constants and overall binding affinity, double-referenced data were fit to a two-state kinetic model using Biacore 8K Insight Evaluation software (Cytiva).

[2] = molecular target: T2, De-sialylated human CLEC12A; assay: SPR, two-state fit
Method: as §1

[3] = molecular target: T8, Human CD16a V158 (FcγRIIIa V158) (human, UniProt P08637 17-208, biotinylated); assay: SPR; control sample
T8 construct: Bought recombinant receptor; also called hCD16aV; hFcγRIIIa V158

[4] = molecular target: T3, mFc-hNKG2D (recombinant mFc-tagged …); assay: SPR; control sample
[5] = molecular target: T9, Cynomolgus CD16 (FcγRIII) (cynomolgus monkey, UniProt Q8SPW2 17-208, biotinylated); assay: SPR 25C, average
T9 construct: Bought recombinant receptor; also called cFcγRIII; Cyno FcγRIII

[6] = molecular target: T4, Human CD32a H131 (FcγRIIa H131); assay: SPR 25C, biotinylated receptor captured on SA chip
Method: (§2) Human and cynomolgus CD64, high and low affinity alleles of CD16a (V158 and F158, respectively), two alleles of CD32a (H131 and R131), CD16b, CD32b and cynomolgus CD16 were captured via biotin on a primed (according to the manufacturers instruction) Biacore chip. […] Due to irreversibility of streptavidin-biotin interaction, the capture step for all receptors except FcγRI (CD64) was performed just once prior to the start of the binding experiment. hCD64 and cyno CD64 capture on the CAP chip surface was performed during each cycle in accordance with the manufacturer's instructions for the Biotin CAPture kit.

[7] = molecular target: T5, Human CD32a R131 (FcγRIIa R131); assay: SPR 25C, biotinylated receptor captured on SA chip
Method: as §2

[8] = molecular target: T6, Human CLEC12A-His (recombinant, K244 WT); assay: SPR, two-state fit; after low pH hold
Method: as §1

[9] = molecular target: T6, Human CLEC12A-His (recombinant, K244 WT); assay: SPR, two-state fit (kd1); after low pH hold
Method: as §1

mFc-hNKG2D = molecular target: T7, mFc-hNKG2D; assay: SPR; sample after 4 weeks at 40 C in HST pH 6.0

T8 sequence (P08637 17-208 F176V limits assumed): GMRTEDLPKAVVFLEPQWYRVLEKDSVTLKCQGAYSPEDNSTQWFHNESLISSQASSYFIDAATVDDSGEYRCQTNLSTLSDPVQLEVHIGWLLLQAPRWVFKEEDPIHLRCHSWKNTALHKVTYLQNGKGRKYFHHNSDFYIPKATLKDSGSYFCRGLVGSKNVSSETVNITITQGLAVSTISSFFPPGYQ
T9 sequence (Q8SPW2 17-208 limits assumed): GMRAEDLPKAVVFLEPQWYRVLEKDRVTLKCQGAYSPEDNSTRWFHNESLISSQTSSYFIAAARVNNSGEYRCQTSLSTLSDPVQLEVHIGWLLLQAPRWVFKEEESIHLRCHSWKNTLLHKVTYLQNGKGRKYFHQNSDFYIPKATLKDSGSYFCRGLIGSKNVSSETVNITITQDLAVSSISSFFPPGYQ

| Kd [1] | Kd [2] | Kd [3] | koff [3] | kon [3] | Kd [4] | koff [4] | kon [4] | Kd [5] | Kd [6] | Kd [7] | Kd [8] | koff [9] | Kd (mFc-hNKG2D) | koff (mFc-hNKG2D) | kon (mFc-hNKG2D) | Binder |
| --- | --- | --- | --- | --- | --- | --- | --- | --- | --- | --- | --- | --- | --- | --- | --- | --- |
| 0.09 nM | 0.35 nM | 333 nM | 0.0277 s⁻¹ | 83100 M⁻¹ s⁻¹ | 881 nM | 0.143 s⁻¹ | 162000 M⁻¹ s⁻¹ | 349 nM | 954 nM and 823 nM and 930 nM and 895 nM | 1340 nM and 1020 nM and 1600 nM and 1060 nM | 0.7 nM | 0.0465 s⁻¹ |  |  |  | AB0089 TriNKET (bispecific antibody, human IgG1, kappa, F3' format heterodimer of three chains; human IgG1 Fc with EW-RVT and Y349C/S354C mutations; also called AB0089 Lot AB0089-002; CLEC12A TriNKET AB0089) QLQLQESGPGLVKPSETLSLTCTVSGFSLTNYGLHWIRQPPGKCLEWIGVIWVGGATDYNPSLKSRVTISVDTSKNQFSLKLSSVQAADTAVYYCAKGDYGDTLDYWGQGTLVTVSSGGGGSGGGGSGGGGSGGGGSDIQMTQSPSSLSASVGDRVTITCHASQNINFWLSWYQQKPGKAPKLLIYEASNLHTGVPSRFSGSGSGTDFTLTISSLQPEDFATYYCQQSHSYPLTFGCGTKLEIKGSDKTHTCPPCPAPELLGGPSVFLFPPKPKDTLMISRTPEVTCVVVDVSHEDPEVKFNWYVDGVEVHNAKTKPREEQYNSTYRVVSVLTVLHQDWLNGKEYKCKVSNKALPAPIEKTISKAKGQPREPRVYTLPPCRDELTKNQVSLTCLVKGFYPSDIAVEWESNGQPENNYKTTPPVLVSDGSFTLYSKLTVDKSRWQQGNVFSCSVMHEALHNHYTQKSLSLSPG heavy: EVQLVESGGGLVKPGGSLRLSCAASGFTFSSYSMNWVRQAPGKGLEWVSSISSSSSYIYYADSVKGRFTISRDNAKNSLYLQMNSLRAEDTAVYYCARGAPIGAAAGWFDPWGQGTLVTVSSASTKGPSVFPLAPSSKSTSGGTAALGCLVKDYFPEPVTVSWNSGALTSGVHTFPAVLQSSGLYSLSSVVTVPSSSLGTQTYICNVNHKPSNTKVDKKVEPKSCDKTHTCPPCPAPELLGGPSVFLFPPKPKDTLMISRTPEVTCVVVDVSHEDPEVKFNWYVDGVEVHNAKTKPREEQYNSTYRVVSVLTVLHQDWLNGKEYKCKVSNKALPAPIEKTISKAKGQPREPQVCTLPPSRDELTENQVSLTCLVKGFYPSDIAVEWESNGQPENNYKTTPPVLDSDGSFFLYSWLTVDKSRWQQGNVFSCSVMHEALHNHYTQKSLSLSPG light: DIQMTQSPSSVSASVGDRVTITCRASQGISSWLAWYQQKPGKAPKLLIYAASSLQSGVPSRFSGSGSGTDFTLTISSLQPEDFATYYCQQGVSFPRTFGGGTKVEIKRTVAAPSVFIFPPSDEQLKSGTASVVCLLNNFYPREAKVQWKVDNALQSGNSQESVTEQDSKDSTYSLSSTLTLSKADYEKHKVYACEVTHQGLSSPVTKSFNRGEC |
|  |  |  |  |  |  |  |  |  |  |  |  |  | 602 nM | 0.127 s⁻¹ | 211000 M⁻¹ s⁻¹ | AB0192 TriNKET (other, the condition stands under assay; also called AB0192 Lot AB0192-005) EVQLVESGGGVVQPGGSLRLSCAASGFTFNAFGMHWVRQAPGKCLEWVAFISSGSTSIYYANTVKGRFTISRDNSKNTLYLQMNSLRAEDTAVYYCARDGYPTGGAMDYWGQGTSVTVSSGGGGSGGGGSGGGGSGGGGSDIQMTQSPSSLSASVGDRVTITCKASQDIYNYLSWFQQKPGKAPKPLIYRANILVSGVPSRFSGSGSGQDYTFTISSLQPEDIATYYCLQFDAFPFTFGCGTKLEIKGSDKTHTCPPCPAPELLGGPSVFLFPPKPKDTLMISRTPEVTCVVVDVSHEDPEVKFNWYVDGVEVHNAKTKPREEQYNSTYRVVSVLTVLHQDWLNGKEYKCKVSNKALPAPIEKTISKAKGQPREPRVYTLPPCRDELTKNQVSLTCLVKGFYPSDIAVEWESNGQPENNYKTTPPVLVSDGSFTLYSKLTVDKSRWQQGNVFSCSVMHEALHNHYTQKSLSLSPG heavy: EVQLVESGGGLVKPGGSLRLSCAASGFTFSSYSMNWVRQAPGKGLEWVSSISSSSSYIYYADSVKGRFTISRDNAKNSLYLQMNSLRAEDTAVYYCARGAPIGAAAGWFDPWGQGTLVTVSSASTKGPSVFPLAPSSKSTSGGTAALGCLVKDYFPEPVTVSWNSGALTSGVHTFPAVLQSSGLYSLSSVVTVPSSSLGTQTYICNVNHKPSNTKVDKKVEPKSCDKTHTCPPCPAPELLGGPSVFLFPPKPKDTLMISRTPEVTCVVVDVSHEDPEVKFNWYVDGVEVHNAKTKPREEQYNSTYRVVSVLTVLHQDWLNGKEYKCKVSNKALPAPIEKTISKAKGQPREPQVCTLPPSRDELTENQVSLTCLVKGFYPSDIAVEWESNGQPENNYKTTPPVLDSDGSFFLYSWLTVDKSRWQQGNVFSCSVMHEALHNHYTQKSLSLSPG light: DIQMTQSPSSVSASVGDRVTITCRASQGISSWLAWYQQKPGKAPKLLIYAASSLQSGVPSRFSGSGSGTDFTLTISSLQPEDFATYYCQQGVSFPRTFGGGTKVEIKRTVAAPSVFIFPPSDEQLKSGTASVVCLLNNFYPREAKVQWKVDNALQSGNSQESVTEQDSKDSTYSLSSTLTLSKADYEKHKVYACEVTHQGLSSPVTKSFNRGEC |
